Assay results: patent US20120129720, “APTAMER THAT RECOGNIZES PEPTIDE” (KANAGAWA PREFECTURAL HOSPITAL ORGANIZATION, published 2012)

T1: His-MIF (His-tag/T7 gene 10 leader/Xpress-MIF fusion) (UniProt P14174 P14174:1-115)
T1 chain: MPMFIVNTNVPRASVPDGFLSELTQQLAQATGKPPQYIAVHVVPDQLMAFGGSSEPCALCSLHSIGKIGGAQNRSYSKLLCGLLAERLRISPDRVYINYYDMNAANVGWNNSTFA

B1: #730 (ssRNA)
RNA: GGGACGCUCACGUACGCUCAUUCGACCGGGUUAUUGGCUGCUCUCCUCUGGUUUGUGAUGUCAGUGCCUGGACGUGCAGU
modifications: 3' A20 tail for capture
B2: #743 (ssRNA)
RNA: GGGACGCUCACGUACGCUCAACACUUGCUUUUUCUUGUCCGGGUUUAUUGGUCGUUGUAUUCAGUGCCUGGACGUGCAGU
modifications: 3' A20 tail for capture
B3: X region SEQ 2309 (ssRNA)
RNA: GGGACGCUCACGUACGCUCACUGGGCGACUAGGUGUACUGGCUAUCACGUUCUGGAUAAGUCAGUGCCUGGACGUGCAGU
modifications: 3' A20 tail for capture
B4: X region SEQ 2310 (ssRNA)
RNA: GGGACGCUCACGUACGCUCAUGGUGGAUUGGUGCAUCUAUGUCUUCUUACUUGUUAUCAGUGCCUGGACGUGCAGU
modifications: 3' A20 tail for capture
B5: X region SEQ 2311 (ssRNA)
RNA: GGGACGCUCACGUACGCUCAAGACGGUGUACUGGCACUUUUACUUCAUUGAGUAGAAAUUCGUCAGUGCCUGGACGUGCAGU
modifications: 3' A20 tail for capture
B6: X region SEQ 2313 (ssRNA)
RNA: GGGACGCUCACGUACGCUCAGGUGUACUGUAACCUGCCUGCCACCUGCGGCUUCGCGGACUCAGUGCCUGGACGUGCAGU
modifications: 3' A20 tail for capture
B7: X region SEQ 2314 (ssRNA)
RNA: GGGACGCUCACGUACGCUCAAACUUGAUCCUGGUUUCCAGCAGUAUGCCGCGUGAUUUCGUCAGUGCCUGGACGUGCAGU
modifications: 3' A20 tail for capture
B8: X region SEQ 2315 (ssRNA)
RNA: GGGACGCUCACGUACGCUCAACCCGCGACUAGGUUUUCCUGGCGACCGUCCGGUAGUGUCAGUGCCUGGACGUGCAGU
modifications: 3' A20 tail for capture
B9: X region SEQ 2316 (ssRNA)
RNA: GGGACGCUCACGUACGCUCACAACUUGUAUUGUCCGGGUGUACUGUACCGAAACUCGUGAUCAGUGCCUGGACGUGCAGU
modifications: 3' A20 tail for capture
B10: X region SEQ 2317 (ssRNA)
RNA: GGGACGCUCACGUACGCUCAGGUUGAUCCCGUUCUUCUUGACUGGCGCCUUCAUGGAGUGUCAGUGCCUGGACGUGCAGU
modifications: 3' A20 tail for capture
B11: X region SEQ 2318 (ssRNA)
RNA: GGGACGCUCACGUACGCUCAACUCCCUCUUUCGCGGGCUCCUUUCCGCAACACGACUGGCUCAGUGCCUGGACGUGCAGU
modifications: 3' A20 tail for capture
B12: X region SEQ 2319 (ssRNA)
RNA: GGGACGCUCACGUACGCUCAAAAGUUUUGCACGUUCUCCCGGUGUCCUGGCGCUUGGCUGUCAGUGCCUGGACGUGCAGU
modifications: 3' A20 tail for capture
B13: X region SEQ 2320 (ssRNA)
RNA: GGGACGCUCACGUACGCUCAGACGUUCAAGUAAAUUGGCCCUAUAUUUCGUUAUAGUAUGUCAGUGCCUGGACGUGCAGU
modifications: 3' A20 tail for capture
B14: X region SEQ 2321 (ssRNA)
RNA: GGGACGCUCACGUACGCUCAGCACUGCUUACGGGGUCUCCGGCAGUAUGCCCUGGUGUAUUCAGUGCCUGGACGUGCAGU
modifications: 3' A20 tail for capture
B15: X region SEQ 2322 (ssRNA)
RNA: GGGACGCUCACGUACGCUCAGUUGGUUGCUGUGCAGUCUGGGUGUCUUGGCUUUCGGAUGUCAGUGCCUGGACGUGCAGU
modifications: 3' A20 tail for capture
B16: X region SEQ 2323 (ssRNA)
RNA: GGGACGCUCACGUACGCUCACUACAAUAAUAUUACCCCUUGUUUUCGUUUAGUCCGGGUUUCAGUGCCUGGACGUGCAGU
modifications: 3' A20 tail for capture
B17: X region SEQ 2324 (ssRNA)
RNA: GGGACGCUCACGUACGCUCAUGGUGUACUGUACCUAUUCGACACUUCUGUUGAUUAGUGAUCAGUGCCUGGACGUGCAGU
modifications: 3' A20 tail for capture
B18: X region SEQ 2325 (ssRNA)
RNA: GGGACGCUCACGUACGCUCAUACUUCCGGGUGUACUGUAAGCCCUACGCUGGAGGGGCUCUCAGUGCCUGGACGUGCAGU
modifications: 3' A20 tail for capture
B19: X region SEQ 2326 (ssRNA)
RNA: GGGACGCUCACGUACGCUCAGGCUACUGGUCAGAGGUUUCCAGCAGAUUUCCUGCCUAAAUCAGUGCCUGGACGUGCAGU
modifications: 3' A20 tail for capture
B20: X region SEQ 2327 (ssRNA)
RNA: GGGACGCUCACGUACGCUCAAGACUCCUGUGUUUCGGGUGUACUGUCACGAUUCGUUGUCUCAGUGCCUGGACGUGCAGU
modifications: 3' A20 tail for capture
B21: X region SEQ 2328 (ssRNA)
RNA: GGGACGCUCACGUACGCUCAAAUUGUCUUCGCGUUGUCUUGAAUGGGUAAUAGUAGACGAUCAGUGCCUGGACGUGCAGU
modifications: 3' A20 tail for capture
B22: X region SEQ 2329 (ssRNA)
RNA: GGGACGCUCACGUACGCUCAAAACCUGUGCUGAUCGCUGUUGGACAGUUCUACAUGCGCAUCAGUGCCUGGACGUGCAGU
modifications: 3' A20 tail for capture
B23: X region SEQ 2330 (ssRNA)
RNA: GGGACGCUCACGUACGCUCACGCUUUAAUGAUCUGAUCGUGCUUCGCUGCGUAGUAUUGGUCAGUGCCUGGACGUGCAGU
modifications: 3' A20 tail for capture
B24: X region SEQ 2331 (ssRNA)
RNA: GGGACGCUCACGUACGCUCAGAGUCGUUAUCUCCUGUACUAAUCACCUACUGAUCGAGCAUCAGUGCCUGGACGUGCAGU
modifications: 3' A20 tail for capture
B25: X region SEQ 2332 (ssRNA)
RNA: GGGACGCUCACGUACGCUCAUUAGACGUUCUCUACGUCCGUGCCGCCCUGAUCGAGCGACUCAGUGCCUGGACGUGCAGU
modifications: 3' A20 tail for capture
B26: X region SEQ 2333 (ssRNA)
RNA: GGGACGCUCACGUACGCUCAAAUGACCCCGAUUCCCCUUUCGUGUUGUCUGAUCGCAGGCUCAGUGCCUGGACGUGCAGU
modifications: 3' A20 tail for capture
B27: X region SEQ 2334 (ssRNA)
RNA: GGGACGCUCACGUACGCUCACACCUAGAGCCUGAACUGCCUAAGCGCUGAUCGGCAUUUAUCAGUGCCUGGACGUGCAGU
modifications: 3' A20 tail for capture
B28: X region SEQ 2335 (ssRNA)
RNA: GGGACGCUCACGUACGCUCACAGGCUGAUCGCUUCUUUACGUCUAAGUAUUGACUUUAGCUCAGUGCCUGGACGUGCAGU
modifications: 3' A20 tail for capture
B29: X region SEQ 2336 (ssRNA)
RNA: GGGACGCUCACGUACGCUCAUCGAUUAGAAUACUCUUUGUGCGCCGUCGGCCUGAUCGUUCAGUGCCUGGACGUGCAGU
modifications: 3' A20 tail for capture
B30: X region SEQ 2337 (ssRNA)
RNA: GGGACGCUCACGUACGCUCAUCGUCGUAGGCGUACUGAUCGAAUCGUACUUACUAUUGCGUCAGUGCCUGGACGUGCAGU
modifications: 3' A20 tail for capture
B31: X region SEQ 2338 (ssRNA)
RNA: GGGACGCUCACGUACGCUCAUGAGACUGAUCGUGACAACUCCUGUAUGUUCGAUCUCAUCUCAGUGCCUGGACGUGCAGU
modifications: 3' A20 tail for capture
B32: X region SEQ 2339 (ssRNA)
RNA: GGGACGCUCACGUACGCUCAUGCUGAUCGUUCGGUGAAUCAUUUCCUUACCUACCUACGUUCAGUGCCUGGACGUGCAGU
modifications: 3' A20 tail for capture
B33: X region SEQ 2340 (ssRNA)
RNA: GGGACGCUCACGUACGCUCAUGUAUUUCUGUUAGUGCUCGGUCCUGCUGAUCGGUUAGACUCAGUGCCUGGACGUGCAGU
modifications: 3' A20 tail for capture
B34: X region SEQ 2341 (ssRNA)
RNA: GGGACGCUCACGUACGCUCAUGUCCGCUGUUAAAGAUCGCGACUCUGGGCCCUGAUCGAUUCAGUGCCUGGACGUGCAGU
modifications: 3' A20 tail for capture
B35: X region SEQ 2342 (ssRNA)
RNA: GGGACGCUCACGUACGCUCAUGACAUCUGAGGCUUUUUUCUUGGGGAAUUUUCCGAGACCUCAGUGCCUGGACGUGCAGU
modifications: 3' A20 tail for capture
B36: X region SEQ 2343 (ssRNA)
RNA: GGGACGCUCACGUACGCUCACUGUGCUCGGAUUUCAUCCGGGUCCUAUACUUCUACUAUAUCAGUGCCUGGACGUGCAGU
modifications: 3' A20 tail for capture
B37: X region SEQ 2344 (ssRNA)
RNA: GGGACGCUCACGUACGCUCAGUCCAUUUUCGUCGUGUAAUUUCGGCAACGGUUCCGGGGAUCAGUGCCUGGACGUGCAGU
modifications: 3' A20 tail for capture
B38: X region SEQ 2345 (ssRNA)
RNA: GGGACGCUCACGUACGCUCAUAUGUUCGACUUAAUUUGAUCUGCAUGUUUGUCUCCGGGCUCAGUGCCUGGACGUGCAGU
modifications: 3' A20 tail for capture
B39: X region SEQ 2346 (ssRNA)
RNA: GGGACGCUCACGUACGCUCAUGUUCCGGGCCGACUGGCUGUUAGAGAUCUCUGAUGUAGGUCAGUGCCUGGACGUGCAGU
modifications: 3' A20 tail for capture
B40: X region SEQ 2347 (ssRNA)
RNA: GGGACGCUCACGUACGCUCAUUUUUCCUCUUUGCCCUAUGUUUGGGCGACGCAUCCGGGUUCAGUGCCUGGACGUGCAGU
modifications: 3' A20 tail for capture

Target: T1, His-MIF (His-tag/T7 gene 10 …)
Experiment: SPR; 600 nM His-MIF; data not shown
Conditions: MIF 115 aa; ATGen

Binding result, binds:
B1
B2

Target: T1, His-MIF (His-tag/T7 gene 10 …)
Experiment: SPR; data not shown
Conditions: MIF 115 aa; ATGen

Binding result, binds:
B3
B4
B5
B6
B7
B8
B9
B10
B11
B12
B13
B14
B15
B16
B17
B18
B19
B20
B21
B22
B23
B24
B25
B26
B27
B28
B29
B30
B31
B32
B33
B34
B35
B36
B37
B38
B39
B40
